# Experimental data: PMC6522849
# Tested on: T1, BsrR (Enterococcus faecium NW2), ORF:b1c0129b
# T1 sequence: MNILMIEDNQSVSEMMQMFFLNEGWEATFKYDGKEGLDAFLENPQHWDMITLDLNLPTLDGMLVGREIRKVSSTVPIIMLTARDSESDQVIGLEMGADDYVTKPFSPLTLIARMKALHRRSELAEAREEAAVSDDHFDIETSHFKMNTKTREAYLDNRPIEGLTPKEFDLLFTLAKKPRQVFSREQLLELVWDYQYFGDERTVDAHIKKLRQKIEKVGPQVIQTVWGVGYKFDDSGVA
# Test: EMSA
sequence,measurement,value
"AAATAAAACTCCTTTTTTATTGGAATAAGTTTATCTTAACAAAGAATGAACAAAAGACAAACCTTTCGTGAAGAATTCCTGAACATATTGGTTCAGTCAACAATTTAGAGTATACTATAAGAAGAGAATTTAGGAGGGAAAGA (double strand) [bsrX upstream intergenic region, 143 bp]",binding,binds
